B1: FBF1 (parent)
chain: YQRPQDSEDMWGDEDFTFGAYQPT

Variants of: B1
Assay: protein stability index of a GFP-peptide fusion (GPS, HEK-293T) (PSI 1-6); higher = more stable
Settings: c terminus: a fixed tail appended
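Further: lentivirally expressed fusions sorted by FACS into six bins by GFP to DsRed ratio, PSI derived from sequencing read proportions per bin multiplied by bin number.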

Variant	protein stability index
YQRPQDSEDMWGDEDFTFEAYQPT [G19E]	3.76
YQRPQDSEDMWGDEDFTFPAYQPT [G19P]	2.77
YQRPQDSEDMWGDEDFTFDAYQPT [G19D]	3.49
YQRPQDSEDMWGDEDFTFFAYQPT [G19F]	2.56
YQRPQDSEDMWGDEDFTFQAYQPT [G19Q]	2.78
YQRPQDSEDMWGDEDFTFAAYQPT [G19A]	2.59
YQRPQDSEDMWGDEDFTFHAYQPT [G19H]	2.67
YQRPQDSEDMWGDEDFTFMAYQPT [G19M]	2.88
YQRPQDSEDMWGDEDFTFCAYQPT [G19C]	2.53
YQRPQDSEDMWGDEDFTFLAYQPT [G19L]	2.33
YQRPQDSEDMWGDEDFTFIAYQPT [G19I]	2.64
YQRPQDSEDMWGDEDFTFNAYQPT [G19N]	3.1
YQRPQDSEDMWGDEDFTFKAYQPT [G19K]	2.51
YQRPQDSEDMKGDEDFTFGAYQPT [W11K]	4.27
YQRPQDSEDMYGDEDFTFGAYQPT [W11Y]	3.74
YQRPQDSEDMPGDEDFTFGAYQPT [W11P]	4.87
YQRPQDSEDMRGDEDFTFGAYQPT [W11R]	4.43
YQRPQDSEDMFGDEDFTFGAYQPT [W11F]	3.83
YQRPQDSEDMEGDEDFTFGAYQPT [W11E]	4.5
YQRPQDSEDMTGDEDFTFGAYQPT [W11T]	4.33
YQRPQDSEDMAGDEDFTFGAYQPT [W11A]	4.45
YQRPQDSEDMLGDEDFTFGAYQPT [W11L]	4.13
YQRPQDSEDMHGDEDFTFGAYQPT [W11H]	4.54
YQRPQDSEDMCGDEDFTFGAYQPT [W11C]	4.55

Variant	protein stability index
YQRPQDSEDMMGDEDFTFGAYQPT [W11M]	4.13
YQRPQDSEDMVGDEDFTFGAYQPT [W11V]	4.25
YQRPQDSEDMDGDEDFTFGAYQPT [W11D]	4.54
YQRPQDSEDMSGDEDFTFGAYQPT [W11S]	4.79
YQRPQDSEDMGGDEDFTFGAYQPT [W11G]	4.67
YQRPQDSEDMNGDEDFTFGAYQPT [W11N]	4.44
YQRPQDSEDMQGDEDFTFGAYQPT [W11Q]	4.78
YQRPQDSEDMIGDEDFTFGAYQPT [W11I]	4.19
YQRPQDSEVMWGDEDFTFGAYQPT [D9V]	1.66
YQRPQDSEWMWGDEDFTFGAYQPT [D9W]	2.01
YQRPQDSETMWGDEDFTFGAYQPT [D9T]	2.59
YQRPQDSEYMWGDEDFTFGAYQPT [D9Y]	1.87
YQRPQDSEDQWGDEDFTFGAYQPT [M10Q]	3.71
YQRPQDSEDYWGDEDFTFGAYQPT [M10Y]	3.11
YQRPQDSEDIWGDEDFTFGAYQPT [M10I]	2.39
YQRPQDSEDNWGDEDFTFGAYQPT [M10N]	4.06
YQRPQDSEDVWGDEDFTFGAYQPT [M10V]	2.75
YQRPQDSEDLWGDEDFTFGAYQPT [M10L]	2.25
YQRPQDSEDSWGDEDFTFGAYQPT [M10S]	3.5
YQRPQDSEDCWGDEDFTFGAYQPT [M10C]	3.23
YQRPQDSEDTWGDEDFTFGAYQPT [M10T]	3.73
YQRPQDSEDGWGDEDFTFGAYQPT [M10G]	3.96
YQRPQDSEDWWGDEDFTFGAYQPT [M10W]	2.81
YQRPQDSEDFWGDEDFTFGAYQPT [M10F]	1.86

Variant	protein stability index
YQRPQDSEDRWGDEDFTFGAYQPT [M10R]	3.66
YQRPQDSEDHWGDEDFTFGAYQPT [M10H]	3.47
YQRPQDSEDAWGDEDFTFGAYQPT [M10A]	4.18
YQRPQDSEDKWGDEDFTFGAYQPT [M10K]	3.72
YQRPQDSEDDWGDEDFTFGAYQPT [M10D]	4.06
YQRPQDSEDEWGDEDFTFGAYQPT [M10E]	4.53
YQRPQDSEDPWGDEDFTFGAYQPT [M10P]	3.34
YQRPQDSEDMWGFEDFTFGAYQPT [D13F]	2.18
YQRPQDSEDMWGKEDFTFGAYQPT [D13K]	2.52
YQRPQDSEDMWGWEDFTFGAYQPT [D13W]	1.53
YQRPQDSEDMWGEEDFTFGAYQPT [D13E]	3.13
YQRPQDSEDMWGYEDFTFGAYQPT [D13Y]	1.72
YQRPQDSEDMWGHEDFTFGAYQPT [D13H]	1.76
YQRPQDSEDMWGPEDFTFGAYQPT [D13P]	1.73
YQRPQDSEDMWGGEDFTFGAYQPT [D13G]	2.28
YQRPQDSEDMWGQEDFTFGAYQPT [D13Q]	1.79
YQRPQDSEDMWGMEDFTFGAYQPT [D13M]	2.32
YQRPQDSEDMWGTEDFTFGAYQPT [D13T]	1.77
YQRPQDSEDMWGCEDFTFGAYQPT [D13C]	1.74
YQRPQDSEDMWGIEDFTFGAYQPT [D13I]	2.13
YQRPQDSEDMWGLEDFTFGAYQPT [D13L]	2.45
YQRPQDSEDMWGSEDFTFGAYQPT [D13S]	1.85
YQRPQDSEDMWGNEDFTFGAYQPT [D13N]	2.07
YQRPQDSEDMWGAEDFTFGAYQPT [D13A]	2.1

Variant	protein stability index
YQRPQDSEDMWGVEDFTFGAYQPT [D13V]	1.8
YQRPQDSEDMWGREDFTFGAYQPT [D13R]	2.89
YQRPQDSEDMWGDHDFTFGAYQPT [E14H]	2.84
YQRPQDSEDMWGDQDFTFGAYQPT [E14Q]	1.94
YQRPQDSEDMWGDNDFTFGAYQPT [E14N]	1.8
YQRPQDSEDMWGDIDFTFGAYQPT [E14I]	1.82
YQRPQDSEDMWGDGDFTFGAYQPT [E14G]	1.88
YQRPQDSEDMWGDKDFTFGAYQPT [E14K]	1.46
YQRPQDSEDMWGDSDFTFGAYQPT [E14S]	2.43
YQRPQDSEDMWGDPDFTFGAYQPT [E14P]	2.03
YQRPQDSEDMWGDCDFTFGAYQPT [E14C]	2.11
YQRPQDSEDMWGDVDFTFGAYQPT [E14V]	2.36
YQRPQDSEDMWGDRDFTFGAYQPT [E14R]	2.05
YQRPQDSEDMWGDFDFTFGAYQPT [E14F]	1.78
YQRPQDSEDMWGDYDFTFGAYQPT [E14Y]	2.27
YQRPQDSEDMWGDWDFTFGAYQPT [E14W]	2.21
YQRPQDSEDMWGDTDFTFGAYQPT [E14T]	2.15
YQRPQDSEDMWGDADFTFGAYQPT [E14A]	1.67
YQRPQDSEDMWGDLDFTFGAYQPT [E14L]	1.66
YQRPQDSEDMWGDMDFTFGAYQPT [E14M]	1.26
YQRPQDSEDMWGDDDFTFGAYQPT [E14D]	2.58
YQRPQDSEDMWGDEDFTIGAYQPT [F18I]	3.06

Reference: the supplement of paper PMC10567573
